# Measured values reported in the supplement of paper PMC9170038.
# Legend:
# Settings in all cases: FMN input: 0 or 200 uM; Eterna round: R93 (includes R88 designs)
# MS2 coat protein [1] = experiment: apparent KD of MS2 coat protein, switch OFF state (with FMN for OFF switches, without FMN for ON switches); designed switch direction (-1 OFF switch, 1 ON switch): 1; higher = weaker reporter binding
# Summary of the method: (§1)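 Titrations with SNAP-549-labelled MS2 coat protein ran in twofold steps from 0.7 or 1.5 nM to 3 µM, each step taking 0.8–1.5 h at the start and 10–20 min toward the end. The targets were designed RNA switches transcribed on-chip from Illumina sequencing clusters, held in 100 mM Tris-HCl pH 7.5, 80 mM KCl, 4 mM MgCl2, without or with constant ligand. Apparent KD was taken per design as the median of normalised cluster binding-curve fits.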
# MS2 coat protein [2] = experiment: apparent KD of MS2 coat protein, switch ON state; designed switch direction (-1 OFF switch, 1 ON switch): 1; higher = weaker reporter binding
# Summary of the method: as §1
# MS2 coat protein [3] = experiment: apparent KD of MS2 coat protein, switch ON state; designed switch direction (-1 OFF switch, 1 ON switch): -1; higher = weaker reporter binding
# Summary of the method: as §1
# MS2 coat protein [4] = experiment: apparent KD of MS2 coat protein, switch OFF state (with FMN for OFF switches, without FMN for ON switches); designed switch direction (-1 OFF switch, 1 ON switch): -1; higher = weaker reporter binding
# Summary of the method: as §1
Sequence,apparent KD of MS2 coat protein (MS2 coat protein [1]) [nM],apparent KD of MS2 coat protein (MS2 coat protein [2]) [nM],apparent KD of MS2 coat protein (MS2 coat protein [3]) [nM],apparent KD of MS2 coat protein (MS2 coat protein [4]) [nM]
AAAAAAAAAAACUAGGAUAUUUAACGGACAACAUGAGGAUCACCCAUGUCACAAAAAAAAAUAGUAAAGAAGGAGUAAAAAAAAAA [Same State 2],23.8,25,,
AAAAAAAAAACUGAGGAUAUGAAAUAAUAGACAUGAGGAUCACCCAUGUUUUCGGUCGAAAAAAUGCAGAAGGCAGAAAAAAAAAA [JR_SameState2_Sub3],23.8,19.4,,
AAAAAAAAAAGCUAGGAUAUCCAAAAAAAAACAUGAGGAUCACCCAUGUAAAAAAAAAAAAAAUGGGAGAAGGAGCAAAAAAAAAA [Mod of Eli],39.6,28.5,,
AAAAAAAAAAGUGAGGAUAUGUGAUCGGUGACAUGAGGAUCACCCAUGUGAGGCCUUCGGGCCAAGCAGAAGGUAUAAAAAAAAA [Same State 2-VII],29.4,105,,
AAAAAAAAAGUAGAGGAUAUCCGAGUGGUAACAUGAGGAUCACCCAUGUGAAGAAAGGAAGAUGAGGAGAAGGCUACAAAAAAAAA [Mat - Mod of Nando],42.2,21.2,,
"AAAAAACAUGAGGAUCACCCAUGUAAAAAUAUCACAGGAUAUGGAAACACGAAAGUGAAACCAGAAGGGUGAAAAG [77%, Mat - Mod of Eli, 12]",44.1,20.1,,
AAAAAACAUGAGGAUCACCCAUGUAAUAAAACGUCAGGAUAUUGAUUUUAUUAUUUAUUGCAAGAAGGGACAAAAA [Same State 1 - Omei 2],40.3,20.4,,
AAAAAACAUGAGGAUCACCCAUGUAAUAAAACGUCAGGAUAUUGAUUUUAUUAUUUAUUGCGAGAAGGGACAAAAA [Same State 1 - Omei 3],28.6,20.2,,
AAAAAACAUGAGGAUCACCCAUGUAAUUAAAACGCAGGAUAUAGAAAAAAAAAAAUGUUACUAGAAGGGUGAAAAA ['Same State 1'],62.9,113,,
AAAAAACAUGAGGAUCACCCAUGUAGAAACAUGGGAGGAUAUACAAAGACGAAAGUCAAAGUAGAAGGCCUAAGAA [Mat - Same State 1 - Mod - D166],58.2,81.8,,
AAAAAACAUGAGGAUCACCCAUGUCGAAAGACAUGAGGAUAUGUGUGGAAACCAUACUAUACAGAAGGCAUAAAAA [SS1 - 1009],66.1,82.6,,
AAAAAACAUGAGGAUCACCCAUGUGAAAAAAUCGCAGGAUAUCCCUUUUUUAAAUGGGAGGGAGAAGGGUGAAAAA [Nob's Hobby 15 - Jieux - Same State 1],84.7,40.3,,
AAAAAACAUGAGGAUCACCCAUGUGAGAACAUGGGAGGAUAUACGAGGACGAGAGUCAUAGUAGAAGGCCUAAAAA [Garnet 67],65.6,109,,
AAAAAACAUGAGGAUCACCCAUGUGCAAAAUUCGCAGGAUAUUCUUCUCUUAAAUGAGAGGGAGAAGGGUGUAAAA [Nob's Hobby 24 - Jieux - Same State 1],43.3,18.2,,
AAAAACAUAGUUCAGGAUAUGGUAAUAGUCACAUGAGGAUCACCCAUGUUCAUUUAUAUGAGCGAUCAGAAGGGAGGUAAAAAAA [Mat - Same state - Malcolm Mod - D115],125,124,,
AAAAGACAUGAGGAUCACCCAUGUAAAAACAUAGGAGGAUAUGUCGUGAAAAAAGACUUGGCAGAAGGCCUUUGUC [SS1 - 45],76.4,48.1,,
AAAAGACAUGAGGAUCACCCAUGUCAAAACGUAGGAGGAUAUGUCGUGAAAAAAGACUUGGCAGAAGGCCUGUGUC [SS1 - 42],19.5,15.4,,
AAAAGACAUGAGGAUCACCCAUGUCAAGACGUAGGAGGAUAUGUCGUGAAAAAAGACUUGGCAGAAGGCCUGUGUC [SS1 - 41],21.4,15,,
AAAAUAUAAAGGAAGGAUAUCCAAAGGACUACAUGAGGAUCACCCAUGUAAAGAAAGAAUAAGUGGGAGAAGGUCCAAAUAAUAA [Designing denovo 31],68.3,27,,
AAAGAAAAACUAGAGGAUAUCCGAGUGGUAACAUGAGGAUCACCCAUGUGAAGAAAGGAGCGUGAGGAGAAGGCUAGAAGAAAAA [JL Nando mod 24],146,11,,
AAAGACAUAGUUCAGGAUAUGGUAAUAGUCACAUGAGGAUCACCCAUGUUCAUUUAUAUGAGCGAUCAGAAGGGAGGUAAAAAAA [SameState2 Malc#15],244,182,,
AAAGUACAUGAGGAUCACCCAUGUUGAAAAAAUCGAGGAUAUGCGAAAAAAAAAAAAAAAGCAGAAGGUGAAAAAA [I 'NO' this state well 2],38.6,24.4,,

Sequence,apparent KD of MS2 coat protein (MS2 coat protein [1]) [nM],apparent KD of MS2 coat protein (MS2 coat protein [2]) [nM],apparent KD of MS2 coat protein (MS2 coat protein [3]) [nM],apparent KD of MS2 coat protein (MS2 coat protein [4]) [nM]
GCAAAGUGAGGAUAUACGCGAACAAAAAUAAAAAAGAAAGCGUAGAAGGCACAUGAGGAUCACCCAUGUCCAGC [Mat - Exaclusion 4 - Eli mod - D77],,,23.7,30.3
GCAGGCCAAGGAUAUACAUGAGGAUCACCCAUGUGAGAGAAAAAAGUGAGAAAGAAAAGUAGAAGGUGGUUUGG [salish99-ex3-113],,,71.7,114
GCUGGCGUAGGAUAUACAUGAGGAUCACCCAUGUGAGAGAAAAAAGUGAGAAAGAAAAGUAGAAGGACGUUAGG [salish99-ex3-116],,,40.4,106
GCUUGGGUAGGAUAUACAUGAGGAUCACCCAUGUGAGAGAAAAAAGUGAGAAAGAAAAGUAGAAGGACCUGAGG [salish99-ex3-107],,,123,244
GGAAAACAUGAGGAUCACCCAUGUGAGGAUAUCGAUGUCCAAACCAAAGUGCGGGACUCGAGAAGGCACUUGGA [salish99-ex1-37],,,45.9,28.6
GGAAAGCAAGGAUAUACAAACAAACAAACAAACAAAAGGGAACAUGAGGAUCACCCAUGUAGAAGGUGCAAACA [Exclusion 2 XX],,,41,31.8
GGAUGCCAAGGAUAUACAUGAGGAUCACCCAUGUGAGAGAAAAAAGUGAGAAAGAAAAGUAGAAGGUGGUGUCG [salish99-ex3-92],,,33.1,65.2
GGAUGUCUAGGAUAUACAUGAGGAUCACCCAUGUGAGAGAAAAAAGUGAGAAAGAAAAGUAGAAGGAGGUGUCG [salish99-ex3-88],,,35.6,37.5
GGAUGUGAAGGAUAUACAUGAGGAUCACCCAUGUGAGAGAAAAAAGUGAGAAAGAAAAGUAGAAGGUCGUGUCG [salish99-ex3-86],,,34.9,36.9
GGAUGUGUAGGAUAUACAUGAGGAUCACCCAUGUGAGAGAAAAAAGUGAGAAAGAAAAGUAGAAGGACGUGUCG [salish99-ex3-89],,,41,38
GGUUGGCGAGGAUAUACAUGAGGAUCACCCAUGUGAGAGAAAAAAGUGAGAAAGAAAAGUAGAAGGCGCUGACC [salish99-ex3-04],,,45.7,242
GUAGUGUGAGGAUAUGAUUAAAAGAAGGGAAAGAGACUGCAUCAGAAGGCACAUGAGGAUCACCCAUGUAUGAA [JR_Exc004_Sub1223],,,34.3,45.7
GUAGUGUGAGGAUAUGGAAAGAAGAAGAAAAGGUAGAAAAACUAGAAGGCACAUGAGGAUCACCCAUGUAAGAA [JR_Exc004_Sub1710],,,29.1,20.3
GUCAGCUGAGGAUAUACAGGUGAGGCCGCAUAACAAAAUAUACAUGAGGAUCACCCAUGUAGAAGGCGGAAGAC [Soreramare],,,41.1,47.6
GUCAGCUGAGGAUAUACAGGUGAUGCCGCAUAACAAAAUAUACAUGAGGAUCACCCAUGUAGAAGGCGGAAGAC [Zalaa],,,73.4,20.2
GUGUACAGAGGAUAUACUGGAGCUAGGAAACUAGCAAGAUCACAUGAGGAUCACCCAUGUAGAAGGCUGUACAC [Ex2: 743],,,90.8,20.2
UAAAGACAUGAGGAUCACCCAUGUGAGGAUAUCGGAGAUAACGGAACAUCAAGUUCGGCGAGAAGGCGCAGGAA [JR_Exc001_Sub405],,,33.4,38
UAUACGUGAGGAUAUGCGAAUACCACGUAAGACAUACAGACGCAGAAGGCACAUGAGGAUCACCCAUGUGAACC [JR_Exc004_Sub314],,,19.2,16.3
UAUACGUGAGGAUAUGCGAAUACCACGUUAGACAUAUAGACGCAGAAGGCACAUGAGGAUCACCCAUGUGAACC [JR_Exc004_Sub315],,,21.4,16.4
UCCUCACAUGAGGAUCACCCAUGUGAGGAUAUCUGAAAAAAAAAAAAAAAAAAAAAUCAGAGAAGGCACAUGGG [Design 11: Super Stable Short Helix 1],,,37.1,4.55
UCGUGGUCAGGAUAUACAUGAGGAUCACCCAUGUAAAAGAACACAAAGGAGAGACGACGUAGAAGGGACAAAUA [Erqugere],,,43.7,42.1
